The values below are quoted from earlier work in paper PMC11468230.

Series [1] concerns the target GLP-1 receptor (Homo sapiens) (UniProt P43220).
Series [2] addresses KV channel (Kv1.3) (Homo sapiens) (UniProt P22001).
The target of series [3] is IKCa1 (Homo sapiens) (UniProt O15554).
Series [4] concerns the target Kv1.3 (Homo sapiens) (UniProt P22001).

Chain of UniProt O15554 (O15554 whole entry): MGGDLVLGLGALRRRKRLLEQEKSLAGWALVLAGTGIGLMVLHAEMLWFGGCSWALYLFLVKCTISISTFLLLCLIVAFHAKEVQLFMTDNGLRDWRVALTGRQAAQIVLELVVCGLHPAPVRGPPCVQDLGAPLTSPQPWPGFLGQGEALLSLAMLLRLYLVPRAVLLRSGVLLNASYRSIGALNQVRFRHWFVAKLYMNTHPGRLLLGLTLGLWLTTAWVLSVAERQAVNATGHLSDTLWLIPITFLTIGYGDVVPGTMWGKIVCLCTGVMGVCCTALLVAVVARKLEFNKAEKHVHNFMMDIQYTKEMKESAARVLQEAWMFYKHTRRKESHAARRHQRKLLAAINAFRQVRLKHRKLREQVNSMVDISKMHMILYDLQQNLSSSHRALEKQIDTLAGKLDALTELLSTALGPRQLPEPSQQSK
Chain of UniProt P43220 (P43220 24-463): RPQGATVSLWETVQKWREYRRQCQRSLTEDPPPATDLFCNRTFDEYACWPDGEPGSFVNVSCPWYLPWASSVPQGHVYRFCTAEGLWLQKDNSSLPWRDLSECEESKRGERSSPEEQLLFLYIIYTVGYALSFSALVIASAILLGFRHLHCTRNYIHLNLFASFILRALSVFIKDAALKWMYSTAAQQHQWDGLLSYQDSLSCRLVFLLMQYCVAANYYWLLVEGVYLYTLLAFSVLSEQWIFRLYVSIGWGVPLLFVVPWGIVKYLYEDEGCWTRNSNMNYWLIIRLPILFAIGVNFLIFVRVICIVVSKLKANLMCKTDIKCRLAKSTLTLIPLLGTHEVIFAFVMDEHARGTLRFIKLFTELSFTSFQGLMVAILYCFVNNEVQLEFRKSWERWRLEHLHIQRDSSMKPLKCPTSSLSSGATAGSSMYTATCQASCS

For the substance exendin-4 (from UniProt P26349), the Ki (commonly a dissociation constant, usually derived from enzyme kinetics or from competition with a known ligand) in series [1] is 0.46 nM.

Take Charybdotoxin (from UniProt P13487): the Kd (usually the free concentration of one partner at which half of the binding sites on the other are occupied at equilibrium, for simple one-to-one binding) in series [2] is 3 nM; in series [3] it was 5 nM.

In the case of ShK (from UniProt P29187), the Kd in series [4] is 0.011 nM.
